Experimental data published in patent US10941182 (Amgen, dated 2021).
Starred links: 1 amine or outer side, 2 acyl side, 3 side chain; linkers in the order of their positions; H or OH if unused. Non-standard residues stand in square brackets, D forms with d. *: point of attachment. dBip = N[C@H](Cc1ccc(-c2ccccc2)cc1)C(=O)O; Oic = O=C(O)[C@@H]1C[C@@H]2CCCC[C@@H]2N1; Phe(4-Cl) = N[C@@H](Cc1ccc(Cl)cc1)C(=O)O; Phe(4-I) = N[C@@H](Cc1ccc(I)cc1)C(=O)O; γGlu = O=C(O)[C@H](CCC(=O)[*:2])N[*:1]; NMeR = CN[C@@H](CCCNC(=N)N)C(=O)O; Tridecanoyl = CCCCCCCCCCCCC(=O)*; hArg = N=C(N)NCCCC[C@H](N)C(=O)O; Cha = N[C@@H](CC1CCCCC1)C(=O)O; NMeL = CN[C@@H](CC(C)C)C(=O)O; Nle = CCCC[C@H](N)C(=O)O; Deg = CCC(N)(CC)C(=O)O; AEEA = NCCOCCOCC(=O)O

T1: rat APJ receptor (rat, UniProt Q9JHG3 1-377)
T1 sequence (looked up): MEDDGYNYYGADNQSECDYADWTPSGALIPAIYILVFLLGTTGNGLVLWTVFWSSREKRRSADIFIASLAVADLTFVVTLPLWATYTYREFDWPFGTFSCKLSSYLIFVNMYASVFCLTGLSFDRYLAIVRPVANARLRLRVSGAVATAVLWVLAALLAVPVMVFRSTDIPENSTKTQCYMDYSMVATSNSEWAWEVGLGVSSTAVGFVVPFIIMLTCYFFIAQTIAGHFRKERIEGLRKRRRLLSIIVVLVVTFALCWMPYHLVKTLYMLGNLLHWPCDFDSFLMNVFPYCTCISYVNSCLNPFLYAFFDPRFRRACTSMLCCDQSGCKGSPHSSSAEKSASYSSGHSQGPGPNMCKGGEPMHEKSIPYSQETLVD

T2: human APJ receptor (human, UniProt P35414 1-380)
T2 sequence (looked up): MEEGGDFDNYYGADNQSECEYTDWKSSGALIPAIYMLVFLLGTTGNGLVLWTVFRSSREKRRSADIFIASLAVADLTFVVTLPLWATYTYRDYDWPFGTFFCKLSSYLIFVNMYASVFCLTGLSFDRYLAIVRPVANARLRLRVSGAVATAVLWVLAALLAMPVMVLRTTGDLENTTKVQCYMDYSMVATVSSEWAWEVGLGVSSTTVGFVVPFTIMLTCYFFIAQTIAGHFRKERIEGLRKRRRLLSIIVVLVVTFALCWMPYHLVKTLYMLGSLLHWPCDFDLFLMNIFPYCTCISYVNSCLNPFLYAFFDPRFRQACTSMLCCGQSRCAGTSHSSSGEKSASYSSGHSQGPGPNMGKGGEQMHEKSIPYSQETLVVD


Legend:
rat APJ receptor = molecular target: T1, rat APJ receptor; experiment: cell-based or functional assay
human APJ receptor = molecular target: T2, human APJ receptor; experiment: cell-based or functional assay

Binder | EC50 Rat APJ Receptor (rat APJ receptor) | EC50 Human APJ Receptor (human APJ receptor)
Tridecanoyl-[γGlu][AEEA][AEEA][hArg][dR]Q[hArg]P[Nle][NMeL]SHKG[Oic][Phe(4-I)]P[dBip]-OH (SMILES CCCCCCCCCCCCC(=O)N[C@@H](CCC(=O)NCCOCCOCC(=O)NCCOCCOCC(=O)N[C@@H](CCCCNC(=N)N)C(=O)N[C@H](CCCNC(=N)N)C(=O)N[C@@H](CCC(N)=O)C(=O)N[C@@H](CCCCNC(=N)N)C(=O)N1CCC[C@H]1C(=O)N[C@@H](CCCC)C(=O)N(C)[C@@H](CC(C)C)C(=O)N[C@@H](CO)C(=O)N[C@@H](Cc1c[nH]cn1)C(=O)N[C@@H](CCCCN)C(=O)NCC(=O)N1[C@H](C(=O)N[C@@H](Cc2ccc(I)cc2)C(=O)N2CCC[C@H]2C(=O)N[C@H](Cc2ccc(-c3ccccc3)cc2)C(=O)O)C[C@@H]2CCCC[C@@H]21)C(=O)O) [SEQ ID NO: 311] | 37.4 nM | 34.7 nM
Tridecanoyl-[γGlu][AEEA][AEEA][hArg][dR]Q[hArg]P[Nle][NMeL]AHKG[Oic][Phe(4-I)]P[dBip]-OH (SMILES CCCCCCCCCCCCC(=O)N[C@@H](CCC(=O)NCCOCCOCC(=O)NCCOCCOCC(=O)N[C@@H](CCCCNC(=N)N)C(=O)N[C@H](CCCNC(=N)N)C(=O)N[C@@H](CCC(N)=O)C(=O)N[C@@H](CCCCNC(=N)N)C(=O)N1CCC[C@H]1C(=O)N[C@@H](CCCC)C(=O)N(C)[C@@H](CC(C)C)C(=O)N[C@@H](C)C(=O)N[C@@H](Cc1c[nH]cn1)C(=O)N[C@@H](CCCCN)C(=O)NCC(=O)N1[C@H](C(=O)N[C@@H](Cc2ccc(I)cc2)C(=O)N2CCC[C@H]2C(=O)N[C@H](Cc2ccc(-c3ccccc3)cc2)C(=O)O)C[C@@H]2CCCC[C@@H]21)C(=O)O) [SEQ ID NO: 317] | 63.9 nM | 56.8 nM
Tridecanoyl-[γGlu][AEEA][AEEA][hArg][Nle]Q[hArg]P[dR][NMeL]SHKG[Oic][Phe(4-I)]P[dBip]-OH (SMILES CCCCCCCCCCCCC(=O)N[C@@H](CCC(=O)NCCOCCOCC(=O)NCCOCCOCC(=O)N[C@@H](CCCCNC(=N)N)C(=O)N[C@@H](CCCC)C(=O)N[C@@H](CCC(N)=O)C(=O)N[C@@H](CCCCNC(=N)N)C(=O)N1CCC[C@H]1C(=O)N[C@H](CCCNC(=N)N)C(=O)N(C)[C@@H](CC(C)C)C(=O)N[C@@H](CO)C(=O)N[C@@H](Cc1c[nH]cn1)C(=O)N[C@@H](CCCCN)C(=O)NCC(=O)N1[C@H](C(=O)N[C@@H](Cc2ccc(I)cc2)C(=O)N2CCC[C@H]2C(=O)N[C@H](Cc2ccc(-c3ccccc3)cc2)C(=O)O)C[C@@H]2CCCC[C@@H]21)C(=O)O) [SEQ ID NO: 315] | 4.9 nM | 3.04 nM
Tridecanoyl-[γGlu][AEEA][AEEA][hArg]Q[hArg]P[NMeR][Cha]SHKG[Oic][Nle]P[Phe(4-Cl)]-OH (SMILES CCCCCCCCCCCCC(=O)N[C@@H](CCC(=O)NCCOCCOCC(=O)NCCOCCOCC(=O)N[C@@H](CCCCNC(=N)N)C(=O)N[C@@H](CCC(N)=O)C(=O)N[C@@H](CCCCNC(=N)N)C(=O)N1CCC[C@H]1C(=O)N(C)[C@@H](CCCNC(=N)N)C(=O)N[C@@H](CC1CCCCC1)C(=O)N[C@@H](CO)C(=O)N[C@@H](Cc1c[nH]cn1)C(=O)N[C@@H](CCCCN)C(=O)NCC(=O)N1[C@H](C(=O)N[C@@H](CCCC)C(=O)N2CCC[C@H]2C(=O)N[C@@H](Cc2ccc(Cl)cc2)C(=O)O)C[C@@H]2CCCC[C@@H]21)C(=O)O) [SEQ ID NO: 310] | 0.363 nM | 0.226 nM
Tridecanoyl-[γGlu][AEEA][AEEA][hArg][Nle]Q[hArg]P[dR][NMeL]AHKG[Oic][Phe(4-I)]P[dBip]-OH (SMILES CCCCCCCCCCCCC(=O)N[C@@H](CCC(=O)NCCOCCOCC(=O)NCCOCCOCC(=O)N[C@@H](CCCCNC(=N)N)C(=O)N[C@@H](CCCC)C(=O)N[C@@H](CCC(N)=O)C(=O)N[C@@H](CCCCNC(=N)N)C(=O)N1CCC[C@H]1C(=O)N[C@H](CCCNC(=N)N)C(=O)N(C)[C@@H](CC(C)C)C(=O)N[C@@H](C)C(=O)N[C@@H](Cc1c[nH]cn1)C(=O)N[C@@H](CCCCN)C(=O)NCC(=O)N1[C@H](C(=O)N[C@@H](Cc2ccc(I)cc2)C(=O)N2CCC[C@H]2C(=O)N[C@H](Cc2ccc(-c3ccccc3)cc2)C(=O)O)C[C@@H]2CCCC[C@@H]21)C(=O)O) [SEQ ID NO: 321] | 29.1 nM | 17.9 nM

Results, then the binder that gave them:

EC50 Rat APJ Receptor (rat APJ receptor) | EC50 Human APJ Receptor (human APJ receptor) | Binder
0.102 nM | 0.0277 nM | Tridecanoyl-[γGlu][AEEA][AEEA][hArg]Q[hArg]P[hArg][Cha]SHKG[Oic][Nle]P[Phe(4-Cl)]-OH (SMILES CCCCCCCCCCCCC(=O)N[C@@H](CCC(=O)NCCOCCOCC(=O)NCCOCCOCC(=O)N[C@@H](CCCCNC(=N)N)C(=O)N[C@@H](CCC(N)=O)C(=O)N[C@@H](CCCCNC(=N)N)C(=O)N1CCC[C@H]1C(=O)N[C@@H](CCCCNC(=N)N)C(=O)N[C@@H](CC1CCCCC1)C(=O)N[C@@H](CO)C(=O)N[C@@H](Cc1c[nH]cn1)C(=O)N[C@@H](CCCCN)C(=O)NCC(=O)N1[C@H](C(=O)N[C@@H](CCCC)C(=O)N2CCC[C@H]2C(=O)N[C@@H](Cc2ccc(Cl)cc2)C(=O)O)C[C@@H]2CCCC[C@@H]21)C(=O)O) [SEQ ID NO: 490]
36.1 nM | 37.5 nM | Tridecanoyl-[γGlu][AEEA][AEEA][hArg][dR]Q[hArg]P[Nle][NMeL]AAKG[Oic][Phe(4-I)]P[dBip]-OH (SMILES CCCCCCCCCCCCC(=O)N[C@@H](CCC(=O)NCCOCCOCC(=O)NCCOCCOCC(=O)N[C@@H](CCCCNC(=N)N)C(=O)N[C@H](CCCNC(=N)N)C(=O)N[C@@H](CCC(N)=O)C(=O)N[C@@H](CCCCNC(=N)N)C(=O)N1CCC[C@H]1C(=O)N[C@@H](CCCC)C(=O)N(C)[C@@H](CC(C)C)C(=O)N[C@@H](C)C(=O)N[C@@H](C)C(=O)N[C@@H](CCCCN)C(=O)NCC(=O)N1[C@H](C(=O)N[C@@H](Cc2ccc(I)cc2)C(=O)N2CCC[C@H]2C(=O)N[C@H](Cc2ccc(-c3ccccc3)cc2)C(=O)O)C[C@@H]2CCCC[C@@H]21)C(=O)O) [SEQ ID NO: 329]
1.67 nM | 2.31 nM | Tridecanoyl-[γGlu][AEEA][AEEA][Deg]RP[NMeR][Cha]SHKG[Oic][Nle]P[Phe(4-Cl)]-OH (SMILES CCCCCCCCCCCCC(=O)N[C@@H](CCC(=O)NCCOCCOCC(=O)NCCOCCOCC(=O)NC(CC)(CC)C(=O)N[C@@H](CCCNC(=N)N)C(=O)N1CCC[C@H]1C(=O)N(C)[C@@H](CCCNC(=N)N)C(=O)N[C@@H](CC1CCCCC1)C(=O)N[C@@H](CO)C(=O)N[C@@H](Cc1c[nH]cn1)C(=O)N[C@@H](CCCCN)C(=O)NCC(=O)N1[C@H](C(=O)N[C@@H](CCCC)C(=O)N2CCC[C@H]2C(=O)N[C@@H](Cc2ccc(Cl)cc2)C(=O)O)C[C@@H]2CCCC[C@@H]21)C(=O)O) [SEQ ID NO: 443]
46.6 nM | 36.1 nM | Tridecanoyl-[γGlu][AEEA][AEEA][hArg][Nle]Q[hArg]P[dR][NMeL]AAKG[Oic][Phe(4-I)]P[dBip]-OH (SMILES CCCCCCCCCCCCC(=O)N[C@@H](CCC(=O)NCCOCCOCC(=O)NCCOCCOCC(=O)N[C@@H](CCCCNC(=N)N)C(=O)N[C@@H](CCCC)C(=O)N[C@@H](CCC(N)=O)C(=O)N[C@@H](CCCCNC(=N)N)C(=O)N1CCC[C@H]1C(=O)N[C@H](CCCNC(=N)N)C(=O)N(C)[C@@H](CC(C)C)C(=O)N[C@@H](C)C(=O)N[C@@H](C)C(=O)N[C@@H](CCCCN)C(=O)NCC(=O)N1[C@H](C(=O)N[C@@H](Cc2ccc(I)cc2)C(=O)N2CCC[C@H]2C(=O)N[C@H](Cc2ccc(-c3ccccc3)cc2)C(=O)O)C[C@@H]2CCCC[C@@H]21)C(=O)O) [SEQ ID NO: 333]
14.8 nM | 14.4 nM | Tridecanoyl-[γGlu][AEEA][AEEA][hArg][Nle]Q[hArg]P[dR][NMeL]SAKG[Oic][Phe(4-I)]P[dBip]-OH (SMILES CCCCCCCCCCCCC(=O)N[C@@H](CCC(=O)NCCOCCOCC(=O)NCCOCCOCC(=O)N[C@@H](CCCCNC(=N)N)C(=O)N[C@@H](CCCC)C(=O)N[C@@H](CCC(N)=O)C(=O)N[C@@H](CCCCNC(=N)N)C(=O)N1CCC[C@H]1C(=O)N[C@H](CCCNC(=N)N)C(=O)N(C)[C@@H](CC(C)C)C(=O)N[C@@H](CO)C(=O)N[C@@H](C)C(=O)N[C@@H](CCCCN)C(=O)NCC(=O)N1[C@H](C(=O)N[C@@H](Cc2ccc(I)cc2)C(=O)N2CCC[C@H]2C(=O)N[C@H](Cc2ccc(-c3ccccc3)cc2)C(=O)O)C[C@@H]2CCCC[C@@H]21)C(=O)O) [SEQ ID NO: 327]
